Reference: publication PMC4823995

Target: Mcm6-SuOn (budding yeast) (UniProt Q02724)
Assay: co-IP

fold enrichment of Glc7 in the immunoprecipitate against Mcm6-ctrl: 2 fold
Substance: Glc7 phosphatase (PP1) (from UniProt P32598 1-312) (enzyme)
